Test results as given in US12723255B2, “Herbicide tolerance genes and methods of use thereof” (priority 2014, dated 2026).
Numbering of substitutions follows the chain as printed. Values joined by “and” are separate entries in the source; they are usually repeats but may differ in a detail not shown here. Equal entries are not always repeated.

B1: MON-HT7: engineered oxygenase protein, amino acid sequence SEQ ID NO:34 (protein)
chain: MHAALTPLTNKYRFIDVQPLTGVLGAEITGVDLREPLDDSTWNEILDAFHTYQVIYFPGQAITNEQHIAFSRRFGPVDPVPLLKSIEGYPEVQMIRREANESGRVIGDDWHADSTFLDAPPAAVVMRAIEVPEYGGDTGFLSMYSAWETLSPTMQATIEGLNVVHSATKVFGSLYQATNWRFSNTSVKVMDVDAGDRETVHPLVVTHPVTGRRALYCNQVYCQKIQGMTDAESKSLLQFLYEHATKFDFTCRVRWKKDQVLVWDNLCTMHRSVPDYAGKFRYLTRTTVAGDKPSR
B2: MON-HT8: engineered oxygenase protein, amino acid sequence SEQ ID NO:37 (protein)
chain: B1 chain with L82I, A112T, A277G, G278N, K279A
B3: MON-HT9: engineered oxygenase protein, amino acid sequence SEQ ID NO:40 (protein)
chain: MHAALTPLTNKYRFIDVQPLTGVLGAEITGVDLREPLDDSTWNEILDAFHTYQVIYFPAQQITNEQHISFSRRFGPVDPVPLLKSIEGYPEVQMIRREANESGRILGDDWHTDSTFLDAPPAAVVMRAIEVPEYGGDTGFLSMYSAWDTLSDTMKATIEGLNVVHSATRVFGSLYQAQNWRFSNTSVKVMDVDAGDRETVHPLVVSHPVTGRRALYCNQVYCQRIEGMTDAESKCLLQFLYEHATKFDFTCRVRWKKDQVLVWDNLCTMHRAVPDYAGKFRYLTRTTVAGDRPAR
B4: MON-HT10: engineered oxygenase protein, amino acid sequence SEQ ID NO:43 (protein)
chain: B3 chain with T21C, A59G, Q61A, S69A, R271L, A277D, R292K, A294S
B5: MON-HT55: engineered oxygenase protein, amino acid sequence SEQ ID NO:11 (protein)
chain: MHAALSPLSQRFERIAVQPLTGVLGAEITGVDLREPLDDSTWNEILDAFHTYQVIYFPGQAITNEQHIAFSRRFGPVDPVPLLKSIEGYPEVQMIRREANESGRVIGENWHTDSTFLDAPPAAVVMYAKEIPPYGGDTLFTSMYTAWETLSPTMQATIEGLNVVHSATRVFGSLYQAQNRRFSNTSVKVMDVDAGDRETVHPLVVTHPETGRKGLYVNQVYCQRIEGMSEKESEPLLSFLFAHATKPEFTCRVRWQEGDVLVWDNLCTQHYAVPDYAGKFRYLTRTTVGGVRPAR

What was measured:
[1] = format: physicochemical; settings: buffer; for T1/2, temperature where 50% of the protein was unfolded, Buffer: pH 7.5
Procedure: A protein melting analysis was also conducted. For the protein melting determinations, purified enzyme was added to 96-well microtiter plates in standard storage buffer (30 mM Tris pH7.5, 150 mM NaCl) with or without 50 uM Fe2+ and 1.0 mM aKG. Protein unfolding was then detected with SYPRO® orange protein gel stain (Invitrogen™ catalog #S6651, Life Technologies, Grand Island, NY) in a BioRad CFX96™ Real time PCR machine (BioRad, Hercules, CA) with readings taken between 10° C. to 95° C. in 0.5° C. steps. […] In contrast, 50 uM Fe2+ and 1.0 mM aKG had little effect on the stability of any of the engineered proteins. MON-HT55, MON-HT3, MON-HT4, MON-HT6, and MON-HT10 had melting temperatures in the range of 41° C. to 48° C., which is below the melting temperature of the wild-type enzyme. MON-HT1, MON-HT2, MON-HT5, MON-HT7, MON-HT8, and MON-HT9 had melting temperatures between 58° C. and 67° C., which is 8° C. to 17° C. higher than the wild-type enzyme. For MON-HT7 and MON-HT1, the difference in melting point was 11° C. in buffer without Fe2+ and aKG and 8° C. in buffer with Fe2+ and aKG. This was surprising since there are only four amino acid differences between the two enzymes.
A protein melting analysis was conducted as detailed above. The melting temperatures of MON-HT13, MON-HT15, and MON-HT17 was similar to the melting temperature of MON-HT1 with T1/2 in buffer in the range of 55-58° C., and with T1/2 in buffer plus Fe2+ and aKG in the range of 60-62° C.

F1 hybrid maize plants [2] = test: efficacy field trial for quizalofop-P tolerance and clethodim sensitivity; format: in vivo; settings: scale 0 to 100; for average injury rating, V8 Growth Stage, 1x Clethodim: clethodim 0.25 lb ai/acre at V8, volunteer control
Procedure: (§1) Separate trait efficacy field trials for quizalofop-P and 2,4-D were conducted at two locations cach with F1 hybrid transgenic plants produced by crossing an inbred plant containing maize event MON89034 with an R1 plant containing MON-HT55 (with a CTP), MON-HTI (with or without a CTP), MON-HT2 (with or without a CTP), MON-HT3 (with a CTP), MON-HT4 (with a CTP), MON-HT5 (with a CTP), MON-HT6 (with a CTP), or MON-HT7 (with a CTP). Transgenic F1 hybrid plants containing maize events NK603×MON89034 were used for comparison as a control.
In the efficacy field trial for quizalofop-P tolerance and clethodim sensitivity, one of four herbicide treatments was used: (1) quizalofop-P (Assure II) at 0.32 lb ai/acre (4×) plus 0.25% v/v non-ionic surfactant (NIS) applied at VE-V2 growth stage followed by the same at V4 growth stage followed by the same at V8 growth stage; (2) quizalofop-P at 0.64 lb ai/acre (8×) plus 0.25% v/v NIS applied at VE to V2 growth stage followed by the same at V4 growth stage followed by the same at V8 growth stage; (3) quizalofop-P at 1.28 lb ai/acre (16×) plus 0.25% v/v NIS applied at VE to V2 growth stage followed by the same at V4 growth stage followed by the same at V8growth stage; or (4) clethodim at 0.25 lb ai/acre (1×) plus 0.25% v/v NIS applied at V8 growth stage. Plots were visually rated 10-14 days after application for crop injury on a scale of 0 to 100with “0” being none and “100” being complete crop destruction. Tables 14 and 15 show the average injury ratings after herbicide application at V4 or V8 growth stage, respectively.

F1 hybrid maize plants [3] = test: efficacy field trial for 2,4-D tolerance; format: in vivo; settings: scale 0 to 100, with CTP unless label says no CTP; for average injury rating, V4 Growth Stage, 8x 2,4-D / average injury rating, V8 Growth Stage, 8x 2,4-D: 8 lb ae/acre at VE-V2, V4, V8; for average injury rating, V4 Growth Stage, 16x 2,4-D / average injury rating, V8 Growth Stage, 16x 2,4-D: 16 lb ae/acre at VE-V2, V4, V8
Procedure: as §1
In the efficacy field trial for 2,4-D tolerance, one of four herbicide treatments was used: (1) 2,4-D amine at 2 lb ac/acre (2×) plus 0.25% v/v non-ionic surfactant (NIS) applied to VE to V2 followed by V4 followed by V8; (2) 2,4-D amine at 4 lb ac/acre (4×) plus 0.25% v/v NIS applied to VE to V2 followed by V4 followed by V8; (3) 2,4-D amine at 8 lb ac/acre (8×) plus 0.25% v/v NIS applied to VE to V2 followed by V4 followed by V8 maize; or (4) 2,4-D amine at 16 lb ac/acre (16×) plus 0.25% v/v NIS applied to VE to V2 followed by V4 followed by V8. Plots were visually rated as above. Tables 14 and 15 show the average injury ratings after herbicide application at V4 or V8 growth stage, respectively.

[4] = enzyme activity assay at 23° C. with purified enzyme; format: biochemical; settings: for maximum activity as a percentage of the wild-type enzyme's activity, Haloxyfop: purified enzyme; for maximum activity as a percentage of the wild-type enzyme's activity, Haloxyfop / maximum activity as a percentage of the wild-type enzyme's activity, Fluazifop / maximum activity as a percentage of the wild-type enzyme's activity, Dichlorprop / maximum activity as a percentage of the wild-type enzyme's activity, Fenoxaprop: wild-type set at 100%; for maximum activities for all four substrates compared with the wild-type enzyme: haloxyfop, fenoxaprop, fluazifop and dichlorprop
Procedure: The enzyme activity of MON-HT protein variants with haloxyfop, fenoxaprop, fluazifop, and dichlorprop as substrates was determined using the enzyme activity assay conducted at 23° C. with purified enzyme. The activity was recorded as the maximum activity as a percentage of the wild-type enzyme's activity, which was set at 100%.

[5] = 0.32 lb ai/acre at VE-V2, V4, V8, with CTP unless label says no CTP
[6] = 0.64 lb ai/acre at VE-V2, V4, V8, with CTP unless label says no CTP
[7] = 1.28 lb ai/acre at VE-V2, V4, V8, with CTP unless label says no CTP

Molecule	T1/2, temperature where 50% of the protein was unfolded, Buffer plus Fe2+ and aKG [1]	T1/2, temperature where 50% of the protein was unfolded, Buffer [1]	average injury rating, V8 Growth Stage, 1x Clethodim (F1 hybrid maize plants [2])	average injury rating, V8 Growth Stage, 2x 2,4-D (F1 hybrid maize plants [3]; 2 lb ae/acre at VE-V2, V4, V8)	average injury rating, V4 Growth Stage, 4x 2,4-D (F1 hybrid maize plants [3]; 4 lb ae/acre at VE-V2, V4, V8)	average injury rating, V4 Growth Stage, 8x 2,4-D (F1 hybrid maize plants [3])	average injury rating, V8 Growth Stage, 8x 2,4-D (F1 hybrid maize plants [3])	average injury rating, V4 Growth Stage, 16x 2,4-D (F1 hybrid maize plants [3])	average injury rating, V8 Growth Stage, 16x 2,4-D (F1 hybrid maize plants [3])	maximum activity as a percentage of the wild-type enzyme's activity, Haloxyfop [4]	maximum activity as a percentage of the wild-type enzyme's activity, Fluazifop [4]	maximum activities for all four substrates compared with the wild-type enzyme [4]	maximum activity as a percentage of the wild-type enzyme's activity, Dichlorprop [4]	maximum activity as a percentage of the wild-type enzyme's activity, Fenoxaprop [4]	further results
B1	67 °C	67 °C	93.3	2.0	1.3	5.8	9.3	12.5	20.0						average injury rating, V4 Growth Stage, 4x Quizalofop (F1 hybrid maize plants [2]; [5]): 0.8; average injury rating, V8 Growth Stage, 4x Quizalofop (F1 hybrid maize plants [2]; [5]): 1.5; average injury rating, V4 Growth Stage, 8x Quizalofop (F1 hybrid maize plants [2]; [6]): 1.3; average injury rating, V8 Growth Stage, 8x Quizalofop (F1 hybrid maize plants [2]; [6]): 0.8; average injury rating, V4 Growth Stage, 16x Quizalofop (F1 hybrid maize plants [2]; [7]): 3.3; average injury rating, V8 Growth Stage, 16x Quizalofop (F1 hybrid maize plants [2]; [7]): 5.5; average injury rating, V4 Growth Stage, 2x 2,4-D (F1 hybrid maize plants [3]; 2 lb ae/acre at VE-V2, V4, V8): 1.3; average injury rating, V8 Growth Stage, 4x 2,4-D (F1 hybrid maize plants [3]; 4 lb ae/acre at VE-V2, V4, V8): 2.8
B2	61 °C	61 °C								99%	50%				
B3	60 °C	61 °C								91%	41%	lower than, or equal to	19%	67%	
B4	44 °C	44 °C									48%		29%		
B5	41 °C	41 °C	94.5 and 93.3	15.0 and 12.5 and 16.3 and 14.4 and 11.3	31.3 and 22.5 and 41.3 and 23.1 and 30.0	45.0 and 53.8 and 43.8 and 50.0 and 58.8 and 48.8	33.8 and 36.3 and 39.4 and 30.0 and 35.0	61.3 and 63.8 and 66.3 and 55.0 and 53.8 and 52.5	57.5 and 52.5 and 55.0 and 56.9 and 47.5	58%	38%	lower than, or equal to	31%	34%	
